± gives the uncertainty stated by the source.
B1: Tripartite motif-containing protein 49C, residues 87 to 133; numbered along this chain, P0CI26 (parent)
chain: SSEEQMCGTHRETKKIFCEVDRSLLCLLCSSSQEHRYHRHRPIEWAA

Variants of: B1
Test: abundance fitness (aPCA) (normalised: wild type 0, dead -1); higher = more abundant; growth selection in yeast, the domain comes from the species named
Details: Homo sapiens

Abundance fitness of substitutions, site by site:
R11: L -0.418 ± 0.11; Q -0.246 ± 0.14; T -0.135 ± 0.12; V -0.502 ± 0.11; S -0.185 ± 0.097; M -0.48 ± 0.15
Q5: T -0.345 ± 0.12; P -0.251 ± 0.11; V -0.009 ± 0.096; W -0.465 ± 0.12; A -0.358 ± 0.1; C -0.643 ± 0.21; D 0.159 ± 0.13; R -0.097 ± 0.082; L -0.044 ± 0.094; I -0.291 ± 0.27; E -0.609 ± 0.13; S 0.114 ± 0.098; H -0.315 ± 0.18; Y -0.002 ± 0.18; K 0.165 ± 0.16; F -0.424 ± 0.12; N -0.337 ± 0.16; G -0.244 ± 0.081; M 0.054 ± 0.12
S1: V -0.121 ± 0.22; L -0.156 ± 0.15; A -0.49 ± 0.19; F 0.294 ± 0.23; E -0.003 ± 0.21; G -0.526 ± 0.41; T -0.496 ± 0.19; C -0.79 ± 0.26; Y -0.277 ± 0.22
E12: H -0.228 ± 0.24; C -0.01 ± 0.15; Y -0.092 ± 0.13; T 0.047 ± 0.097; K 0.265 ± 0.12; W -0.439 ± 0.095; G -0.01 ± 0.076; F -0.035 ± 0.12; R 0.021 ± 0.079; I -0.341 ± 0.17; M -0.117 ± 0.12; D 0.077 ± 0.12; L 0 ± 0.082; V -0.072 ± 0.088; A 0.113 ± 0.09; P -0.671 ± 0.11; N -0.797 ± 0.27; Q 0.066 ± 0.11
E3: P -0.172 ± 0.14; D 0.084 ± 0.17; M -0.275 ± 0.12; A 0.051 ± 0.1; R -0.213 ± 0.081; K -0.295 ± 0.22; T -0.487 ± 0.18; C 0.068 ± 0.18; G -0.147 ± 0.091; L -0.176 ± 0.1; S -0.15 ± 0.098; V -0.292 ± 0.1; W -0.156 ± 0.12; I -0.492 ± 0.22; Y -0.592 ± 0.25; H -0.246 ± 0.26; F -0.346 ± 0.18
G8: S -0.086 ± 0.089; F 0.229 ± 0.13; K -0.02 ± 0.11; A -0.005 ± 0.085; W -0.199 ± 0.094; L -0.009 ± 0.086; D -0.022 ± 0.11; C -0.017 ± 0.1; M 0.131 ± 0.096; Q -0.104 ± 0.14; T -0.042 ± 0.11; N -0.159 ± 0.15; V -0.02 ± 0.085; H -0.468 ± 0.16; Y -0.082 ± 0.15
